Experimental data taken from PMC5774762.
pKd: −log10 of the molar value.

How the values were obtained:
[1] = target: SUMO1 (Homo sapiens) (UniProt P63165); details: cited from earlier work
[2] = target: SUMO1 conjugated to agarose beads (UniProt P63165); test: pull-down; SUMO1 beads with various concentrations of hydrogen peroxide (0.006% named in the text); quantitated from the stained gel
[3] = target: SUMO1 conjugated to agarose beads (UniProt P63165); test: pull-down; SUMO1 beads with 2.0 M urea, 5 mM TCEP; quantitated against the reaction without urea
[4] = target: SUMO1 conjugated to agarose beads (UniProt P63165); test: pull-down; SUMO1 beads, with TCEP, at 42°C; bound UTAG quantitated from the stained gel against room temperature
[5] = target: SUMO1 conjugated to agarose beads (UniProt P63165); test: pull-down; SUMO1-conjugated agarose beads in buffer with hydrogen peroxide (0.6% in the text, 1% in the legend) instead of TCEP; quantitated from the stained gel
[6] = target: biotinylated SUMO1 (UniProt P63165); test: BLI; biotinylated SUMO1 on streptavidin sensors (Octet QK); UTAG as analyte 4-250 nM; 25°C; HBS-T (10 mM HEPES pH 7.4, 150 mM NaCl, 0.05% Tween 20); association 300 s, dissociation 300 s; global single-state fit
[7] = target: SUMO1 conjugated to agarose beads (UniProt P63165); test: pull-down; SUMO1 beads, 45 min in the presence of hydrogen peroxide (concentration not told); percent of total protein bound
[8] = target: SUMO1 conjugated to agarose beads (UniProt P63165); test: pull-down; SUMO1 beads, binding of KmUTAG over time (min); percent of total protein bound

Row | percent reduction of binding with 0.006% peroxide [2] [%] | percent reduction of binding in 2M urea [3] [%] | percent reduction of binding at 42°C against room temperature [4] [%] | percent of binding left in the presence of 0.6% H2O2 [5] [%] | pKd [6] | koff [6] [s⁻¹] | kon [6] [M⁻¹ s⁻¹] | percent of the protein bound after 45 minutes in the presence of peroxide [7] [%] | KD after elimination of the top two analyte traces [6] [nM] | percent of the protein bound after 45 minutes [8] [%] | percent of the protein bound within 15 minutes [8] [%] | Substance | pKd [1]
1 | – | – | – | – | – | – | – | – | – | – | – | ScUTAG (from UniProt Q02724) | 7.89
2 | 50 | 82 | 87 | 17 | 8.70 | 4.2e-05 | 21000 | – | – | – | – | ScUTAG, catalytically inactive (C580S) UD domain of Saccharomyces cerevisiae Ulp1, MBP/His6 fusion (from UniProt Q02724 1-621) (domain or fragment) | –
3 | – | 23 | 25 | – | 8.06 | 0.00084 | 96000 | 60 | 8.7 | 70 | 50 | KmUTAG, catalytically inactive (C517S) UD domain of Kluyveromyces marxianus Ulp1, MBP/His6 fusion (from UniProt A0ABX6EQA7 1-555) (domain or fragment) | –
